Drawing on paper PMC11542851, this text covers geomean EC50 across the clade for one molecule.

For assay [1], the target named is clade 1a RBDs (SARS-CoV-1-related sarbecoviruses), yeast-displayed. The assay is described as follows: flow cytometry on cells.
The target in assay [2] is clade 1b RBDs (SARS-CoV-2-related sarbecoviruses), yeast-displayed. Kind of assay: flow cytometry on cells.

B1: C68.61 (antibody, V domains shown)
VH: EVQLVQSGAEVKKPGESLKISCKGSAYIFTRYWIGWVRQMPGKGLEWMGIIYPGDSDTRYSPSFQGQVTISADKSISTAYLQWSSLKASDTAMYYCARSGTTNYFDYWGQGTLVTVSS
VL: DIQLTQSPSTLSASVGDRVTITCRASQSISSWLAWYQQKPGKAPKLLIYDASSLDSGVPSRFSGSGSGTDFTLTISSLQPDDFATYYCQQFNSYWTFGQGTKVEIK
For B1, the geomean EC50 across the clade was 1.9 ng/mL in assay [1] and 0.25 ng/mL in assay [2].
